Series [1] concerns fibrinogen (Homo sapiens), P02671-2+P02675+P02679-2. Description: filter. The conditions noted are these: quinoline-8-boronic acid-modified T (B-TTP) replacing T outside the primer region; average Kd of DNA pool after round 13.
The target in series [2] is T1, fibrinogen (Homo sapiens, UniProt P02671-2;P02675;P02679-2 P02671-2:20-629,P02675:31-491,P02679-2:27-437). As to the kind of experiment: filter; equilibrium filtration; Tables 3 and 4 give 102 ± 40. The conditions noted are these: tags: Sigma-Aldrich, from human plasma, about 60% protein; chain copies: 2; label: 32P (alpha-32P-dATP). The protocol: (§1) Dissociation constants in solution were determined by equilibrium filtration (Jenison et al., Science 1994, 263, 1425-1429; Huang & Szostak, RNA 2003, 9: 1456-1463;). Using this technique, the bound and unbound ligand (DNA) partition between the two portions were separated by a membrane. DNA was first amplified into dsDNA using two primers by PCR (25 cycles of 0.5 min at 94° C., 0.5 min at 46° C., and 0.5 min at 72° C., followed by 5 min at 72° C.). The dsDNA product was then split into ssDNA using one primer and α-³²P-dATP by one-round PCR. The ³²P-labeled ssDNA ligand (10 nM) and the protein (1-1000 nM) in the 100 μL of binding buffer were incubated for 15 min at 25° C. prior to loading into the Microcon YM-100 unit (Millipore, Billerica, Mass.). The solution was centrifuged at 13,000 g for 10 sec to saturate the membrane, and the filtrate was transferred back to the unit. […] Aliquots (10 μL) were taken from both the remaining solution and the filtrate, and radioactivity in each aliquot was determined by Beckman LS 6500 liquid scintillation counter. […]
T1 sequence (P02671 20-629, chain 1 of 3): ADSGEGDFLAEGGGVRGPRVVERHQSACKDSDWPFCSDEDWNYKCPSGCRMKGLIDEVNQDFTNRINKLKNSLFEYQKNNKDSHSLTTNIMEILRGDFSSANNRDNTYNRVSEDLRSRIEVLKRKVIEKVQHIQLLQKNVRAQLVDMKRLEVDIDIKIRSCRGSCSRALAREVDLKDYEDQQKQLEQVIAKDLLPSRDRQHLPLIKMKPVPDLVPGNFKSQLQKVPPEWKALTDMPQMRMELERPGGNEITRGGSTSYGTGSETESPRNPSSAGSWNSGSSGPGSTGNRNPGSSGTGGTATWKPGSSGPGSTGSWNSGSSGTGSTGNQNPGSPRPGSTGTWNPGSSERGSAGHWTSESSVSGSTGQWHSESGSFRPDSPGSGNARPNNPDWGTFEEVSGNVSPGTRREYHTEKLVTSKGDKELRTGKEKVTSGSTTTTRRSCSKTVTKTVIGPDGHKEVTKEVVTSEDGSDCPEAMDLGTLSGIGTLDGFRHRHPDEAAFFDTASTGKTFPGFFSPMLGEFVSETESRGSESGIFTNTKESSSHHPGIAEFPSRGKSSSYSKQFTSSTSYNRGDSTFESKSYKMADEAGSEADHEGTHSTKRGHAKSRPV
T1 sequence (P02675 31-491, chain 2 of 3): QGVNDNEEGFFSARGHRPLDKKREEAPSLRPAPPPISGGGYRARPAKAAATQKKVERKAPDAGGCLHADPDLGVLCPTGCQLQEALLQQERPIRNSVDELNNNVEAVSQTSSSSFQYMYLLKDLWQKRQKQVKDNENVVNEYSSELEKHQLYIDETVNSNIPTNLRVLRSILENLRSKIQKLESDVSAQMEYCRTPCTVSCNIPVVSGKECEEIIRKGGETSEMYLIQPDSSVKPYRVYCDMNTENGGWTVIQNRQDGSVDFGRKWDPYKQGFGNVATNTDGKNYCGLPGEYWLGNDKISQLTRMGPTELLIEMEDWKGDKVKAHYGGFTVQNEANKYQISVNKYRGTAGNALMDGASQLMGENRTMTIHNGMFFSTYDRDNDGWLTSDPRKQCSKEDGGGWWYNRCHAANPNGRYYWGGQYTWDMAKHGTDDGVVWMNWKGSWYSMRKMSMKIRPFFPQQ
T1 sequence (P02679 other isoform, or with tags, fused parts or gaps, chain 3 of 3): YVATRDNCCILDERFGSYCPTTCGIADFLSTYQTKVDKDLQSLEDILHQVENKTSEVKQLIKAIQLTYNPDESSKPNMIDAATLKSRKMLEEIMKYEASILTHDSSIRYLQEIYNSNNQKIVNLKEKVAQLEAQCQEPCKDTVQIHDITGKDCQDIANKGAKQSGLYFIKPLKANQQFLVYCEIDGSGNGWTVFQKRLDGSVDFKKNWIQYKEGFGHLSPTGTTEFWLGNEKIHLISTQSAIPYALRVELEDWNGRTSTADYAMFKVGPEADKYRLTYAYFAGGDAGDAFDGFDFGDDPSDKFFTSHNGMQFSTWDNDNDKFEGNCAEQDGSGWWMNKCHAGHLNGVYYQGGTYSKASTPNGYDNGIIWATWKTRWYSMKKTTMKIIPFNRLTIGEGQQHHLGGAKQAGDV
(§2) To determine the extent to which the aptamers 85A (SEQ ID NO.: 13), 85B (SEQ ID NO.: 14), and 85C (SEQ ID NO.: 15) bind specifically to fibrinogen, their dissociation constants (Kd) were measured using the equilibrium filtration method with radiolabeled α-³²P-dATP. […]

The target in series [3] is T2, periodate-treated fibrinogen (Homo sapiens, UniProt P02671-2;P02675;P02679-2 P02671-2:20-629,P02675:31-491,P02679-2:27-437). Description: filter; equilibrium filtration; value as printed. The conditions noted are these: tags: Sigma-Aldrich fibrinogen, glycans oxidised with sodium periodate; chain copies: 2; label: 32P (alpha-32P-dATP). The protocol:
as §1, §2

In series [4] the target is T3, deglycosylated fibrinogen (TFMS-treated) (Homo sapiens, UniProt P02671-2;P02675;P02679-2 P02671-2:20-629,P02675:31-491,P02679-2:27-437). As to the kind of experiment: filter; equilibrium filtration; value as printed. The note with it: tags: Sigma-Aldrich fibrinogen, chemically deglycosylated with trifluoromethanesulfonic acid; chain copies: 2; label: 32P (alpha-32P-dATP). The protocol: as §1, §2
T3 sequence (P02671 20-629, chain 1 of 3): as the sequence (P02671 20-629, chain 1 of 3) above
T3 sequence (P02675 31-491, chain 2 of 3): as the sequence (P02675 31-491, chain 2 of 3) above
T3 sequence (P02679 other isoform, or with tags, fused parts or gaps, chain 3 of 3): as the sequence (P02679 other isoform, or with tags, fused parts or gaps, chain 3 of 3) above

Series [5] deals with T1, fibrinogen. As to the kind of experiment: filter; equilibrium filtration; peroxide-treated aptamer. The note with it: tags: Sigma-Aldrich, from human plasma, about 60% protein; chain copies: 2; label: 32P (alpha-32P-dATP).
In series [6] the target is T1, fibrinogen. As to the kind of experiment: filter; equilibrium filtration. The note with it: tags: Sigma-Aldrich, from human plasma, about 60% protein; chain copies: 2; label: 32P (alpha-32P-dATP). The protocol:
(§3) Dissociation constants in solution were determined by equilibrium filtration (Jenison et al., Science 1994, 263, 1425-1429; Huang & Szostak, RNA 2003, 9: 1456-1463;). Using this technique, the bound and unbound ligand (DNA) partition between the two portions were separated by a membrane. DNA was first amplified into dsDNA using two primers by PCR (25 cycles of 0.5 min at 94° C., 0.5 min at 46° C., and 0.5 min at 72° C., followed by 5 min at 72° C.). The dsDNA product was then split into ssDNA using one primer and α-³²P-dATP by one-round PCR. The ³²P-labeled ssDNA ligand (10 nM) and the protein (1-1000 nM) in the 100 μL of binding buffer were incubated for 15 min at 25° C. prior to loading into the Microcon YM-100 unit (Millipore, Billerica, Mass.). The solution was centrifuged at 13,000 g for 10 sec to saturate the membrane, and the filtrate was transferred back to the unit. The solution was centrifuged for another 20 sec, and the filtrate (about 10 μL) was collected. Aliquots (10 μL) were taken from both the remaining solution and the filtrate, and radioactivity in each aliquot was determined by Beckman LS 6500 liquid scintillation counter. All binding assays were duplicated. The equilibrium dissociation constants (Kd) of the ligand-protein interaction were obtained by fitting the dependence of bound fractions of specific binding on the concentration of the […] to the equation Y=B max X/(Kd+X), using the SigmaPlot program.
(§4) To determine the extent to which the aptamers 85A (SEQ ID NO.: 13), 85B (SEQ ID NO.: 14), and 85C (SEQ ID NO.: 15) bind specifically to fibrinogen, their dissociation constants (Kd) were measured using the equilibrium filtration method with radiolabeled α-³²P-dATP. The target substrate to which the aptamer was binding was fibrinogen (FIG. 12A), deglycosylated fibrinogen (FIG. 12B) and periodated fibrinogen (FIG. 12C).

In series [7] the target is T2, periodate-treated fibrinogen. As to the kind of experiment: filter; equilibrium filtration. The note with it: tags: Sigma-Aldrich fibrinogen, glycans oxidised with sodium periodate, chain copies: 2. Here is the method: as §3, §4
Series [8] addresses T3, deglycosylated fibrinogen (TFMS-treated). Description: filter; equilibrium filtration. The note with it: tags: Sigma-Aldrich fibrinogen, chemically deglycosylated with trifluoromethanesulfonic acid, chain copies: 2. Here is the method: as §3, §4
Series [9] deals with T1, fibrinogen. Description: filter; equilibrium filtration; Table 1 prints a different (93, possibly truncated) value. The conditions noted are these: tags: Sigma-Aldrich, from human plasma, about 60% protein; chain copies: 2; label: 32P (alpha-32P-dATP). Here is the method:
as §1, §2

Series [10] deals with T1, fibrinogen. As to the kind of experiment: SPR; biotin-aptamer on streptavidin chip. The conditions noted are these: tags: Sigma-Aldrich, from human plasma, about 60% protein, chain copies: 2. The protocol:
0.2 M EDC and 0.05 M NHS were mixed in water. After degassing, 500 μL of this EDC-NHS solution was infused into both channels on the chip over a period of about 10 min (twice). Then a 1 mg/mL streptavidin stock solution was diluted 10-fold with 20 mM sodium acetate buffer at pH 5.2. The streptavidin solution (500 μL) was infused into both the detection and control channels over about 10 min period. […] 1M ethanolamine HCl solution (500 μL) (pH 8.5) was infused in over a period of 3 min to cap un-reacted (and activated) carboxyl sites. Then biotin-labeled aptamer (B-TTP or d-TTP) solution (500 μL, in PBS/T) was infused into the detection channel only over a period of about 10 min (twice). After aptamer immobilization, different fibrinogen concentrations were used in binding studies. In each run, fibrinogen solution was infused in at a flow rate of 0.05 mL/min for 6 min. After each injection, 1M ethanolamine HCl (pH 8.5) solution was infused in as the regeneration solution. All experiments were duplicated.
The KD values were obtained for aptamer 85B (SEQ ID NO.: 14) and its mutational analogs by using a surface plasmon resonance (SPR) instrument. SPR is a method to detect the index of the refraction of surface bound layers, as described by Karlsson et al., (2000) J. Anal. Biochem. 278: 1-13, and Shimomura et al., (2001) Anal. Chim. Acta. 434: 223-230 both of which are incorporated herein by reference in their entireties). This method has been used to determine the kinetic on and off rates for the interactions between biomolecules and binding receptors. In the aptamer-fibrinogen binding studies, streptavidin was immobilized to chips coated with a SAM surface that has terminal carboxyl functional groups. Biotin-labeled DNA was subsequently immobilized on the chip through biotin-streptavidin interactions. Fibrinogen solutions of various concentrations were then used for binding constant determination using kinetic data, as described by Lin et al., (2007). […] Opin. Biotechnol. 8: 498-502; Myszka, D. G. (2000) Methods Enzymol. 323: 325-340; and Myszka & Rich (2000) Pharm. Sci. Technology Today 3: 310-317. Table 6 lists the KD values of 85B and its mutations.
On the technique in general: SPR reads the build-up and loss of mass on a sensor chip optically.

For series [11], the target named is T1, fibrinogen. Description: filter; equilibrium filtration, same buffer. The note with it: tags: Sigma-Aldrich, from human plasma, about 60% protein; chain copies: 2; label: 32P (filtration) or 5'-biotin (SPR). Here is the method: as §1, §2
Where [12] appears, read: label: 32P (filtration) or 5'-biotin (SPR).

Residue numbers refer to the chain shown, from its start.

T2 sequence (P02671 20-629, chain 1 of 3): as the sequence (P02671 20-629, chain 1 of 3) above
T2 sequence (P02675 31-491, chain 2 of 3): as the sequence (P02675 31-491, chain 2 of 3) above
T2 sequence (P02679 other isoform, or with tags, fused parts or gaps, chain 3 of 3): as the sequence (P02679 other isoform, or with tags, fused parts or gaps, chain 3 of 3) above
fibrinogen (Homo sapiens), P02671-2+P02675+P02679-2, sequence (P02671 20-629, chain 1 of 3): as the sequence (P02671 20-629, chain 1 of 3) above
fibrinogen (Homo sapiens), P02671-2+P02675+P02679-2, sequence (P02675 31-491, chain 2 of 3): as the sequence (P02675 31-491, chain 2 of 3) above
fibrinogen (Homo sapiens), P02671-2+P02675+P02679-2, sequence (P02679 other isoform, or with tags, fused parts or gaps, chain 3 of 3): as the sequence (P02679 other isoform, or with tags, fused parts or gaps, chain 3 of 3) above

Regarding “CCTTCGTTGTCTGCCTTCGTNNNNNNNNNNNNNNNNNNNNNNNNNNNNNNNNNNNNNNNNNNNNNNNNNNACCCTTCAGAATTCGCACCA [round 13 SELEX pool B-TTP]”, the Kd (in general, the constant that tells how readily two partners part at equilibrium) in [1] is 5000 nM.

B1: 85A TTP (ssDNA)
DNA: CCTTCGTTGTCTGCCTTCGTAGCGGATCGAATTACGCGTTAACGGCAACCGATAACGGGACCGATTGCACACCCTTCAGAATTCGCACCA
modifications: none (natural T)
Turning to B1, the Kd was 102 nM in the series with fibrinogen [2], 67.4 nM in series [3] and 60.2 nM in series [4].

B2: 85A B-TTP, H2O2-treated (ssDNA)
DNA: B1 DNA
modifications: B-TTP-derived T with boronic acid removed by peroxide oxidation
B2 gave a Kd with fibrinogen [5] of 173 nM.

B3: 85A M-TTP (ssDNA)
DNA: B1 DNA
modifications: 5-alkynyl-amide T without boronic acid (M-TTP) replacing T outside the primer region
The molecule B3 came in with a Kd with fibrinogen [6] of 138 nM.

B4: 85C TTP (ssDNA)
DNA: CCTTCGTTGTCTGCCTTCGTAGTCGACTCTGACGCATGGACGTATCCTGTGCGTATGCATTATGAAGCACACCCTTCAGAATTCGCACCA
modifications: none (natural T)
Consider B4, for which the Kd in [7] (label: 32P (alpha-32P-dATP)) turned out to be 321 nM; in [8] (label: 32P (alpha-32P-dATP)) it was 256 nM; in the series with fibrinogen [9], 122 nM.

B5: 85B-2 B-TTP (ssDNA)
DNA: CCTTCGTTGTCTGCCTTCGTAGGACCGCAGACATCGACGCAGGGAAAATCCGCAAGTCCAGCCAAATGCCACCCTTCAGAATTCGCACCA
modifications: quinoline-8-boronic acid-modified T (B-TTP) replacing T outside the primer region
With B5, the affinity with fibrinogen [10] (label: 5'-biotin), expressed as Kd, was 63.7 nM.

B6: 85B-2 dTTP (ssDNA)
DNA: B5 DNA
modifications: none (natural T)
Molecule B6 showed a Kd with fibrinogen [10] (label: 5'-biotin) of 127 nM.

B7: 85B TTP (ssDNA)
DNA: B5 DNA with A48T
modifications: none (natural T)
With B7, the Kd in the series with fibrinogen [10] (setting [12]) came to 127 nM; in series [7] (setting [12]), 130 nM; in series [8] (setting [12]) it was 140 nM; in the series with fibrinogen [11], 63.8 nM.

B8: 85B-3 B-TTP (ssDNA)
DNA: B5 DNA with T34A, A48T, T49A
modifications: quinoline-8-boronic acid-modified T (B-TTP) replacing T outside the primer region
In the series with fibrinogen [10] (label: 5'-biotin), B8 yielded a Kd of 17.6 nM.

B9: 85B-5 B-TTP (ssDNA)
DNA: B5 DNA with A48T, T67A
modifications: quinoline-8-boronic acid-modified T (B-TTP) replacing T outside the primer region
With B9, the affinity with fibrinogen [10] (label: 5'-biotin), expressed as Kd, was 329 nM.

B10: 85B-4 B-TTP (ssDNA)
DNA: B5 DNA with A48T, T57A, T67A
modifications: quinoline-8-boronic acid-modified T (B-TTP) replacing T outside the primer region
Take B10: the Kd with fibrinogen [10] (label: 5'-biotin) amounted to 11.2 nM.

B11: 85B-1 dTTP (ssDNA)
DNA: B5 DNA with T34A, A48T
modifications: none (natural T)
Take B11: the affinity with fibrinogen [10] (label: 5'-biotin), expressed as Kd, was 507 nM.

B12: 85B-3 dTTP (ssDNA)
DNA: B5 DNA with T34A, A48T, T49A
modifications: none (natural T)
Molecule B12 displayed a Kd in the series with fibrinogen [10] (label: 5'-biotin) of 233 nM.

B13: 85B-1 B-TTP (ssDNA)
DNA: B5 DNA with T34A, A48T
modifications: quinoline-8-boronic acid-modified T (B-TTP) replacing T outside the primer region
Consider B13, for which the Kd with fibrinogen [10] (label: 5'-biotin) worked out at 205 nM. This Kd and that of the molecule before are within 1.5-fold of each other.

B14: 85B-4 dTTP (ssDNA)
DNA: B5 DNA with A48T, T57A, T67A
modifications: none (natural T)
For the molecule B14, binding with fibrinogen [10] (label: 5'-biotin) was put at a Kd of 238 nM.

B15: 85B-5 dTTP (ssDNA)
DNA: B5 DNA with A48T, T67A
modifications: none (natural T)
As to B15, binding with fibrinogen [10] (label: 5'-biotin) was put at a Kd of 1080 nM.

These data come from patent US20110144187, “APTAMER INHIBITION OF THROMBUS FORMATION” (published 2011).
